The results in this text go back to PMC13418734.

For test [1], the target named is Fluc^A12C-K329C (Fluc^NDS1, N-terminal domain sensor) (firefly). Description: FRET or BRET; single-molecule FRET (TIRF) within AF555/AF647-labelled Fluc immobilised on a neutravidin coverslip; the low-FRET (<0.3) state is read as DnaK bound; DnaJ 0.6 uM, DnaK 20 uM, GrpE 1.2 uM and HtpG 10 uM (KJEG); ATP; imaging buffer, room temperature. For orientation: Bioluminescence resonance energy transfer reports proximity on the nanometre scale.

Test [2] concerns the target Fluc^K378C-K496C (Fluc^CDS1, C-terminal domain sensor) (firefly). The test is described as above.

Turning to “DnaK (Escherichia coli Hsp70) (from UniProt P0A6Y8 1-638) (natural protein)”, the percent of the time DnaK bound (<0.3 FRET) after 15 min in test [1] and in test [2] was 15% each time.
